Results published in the DeepSol protein solubility set.

Assay: soluble on expression in E. coli; label from the status in PepcDB or PDB records

Sequence | soluble on expression in E. coli
MGSDKIHHHHHHMLQNRERTYSLPQPFYSDDRLFEIDMQEIFHKEWLIAGMTCEIPTKGNFLTLQIGKNPILVVRGPDGAVNAFHNVCRHRGSRLCTAEKGKVAKLVCHYHQWTYELDGRLLYAGTEMGDDFDMKQFGLKPVHVKTAGGYIFISLAENPPAIDEFLATLKHYMEPYDMENTKVAVQTTLMEKANWKLVLENNRECYHCGGAHPELLKTLLEWDDVTDPRADQAFKDHVAASAAAWDAEKIPYAHASFGLRNRIVRMPLLKGTVSMTMDGKVGCKKLMGRIQNPELGSMRILHLPHSWNHCMGDHIIVFTVWPISAQETMVSTKWIVHKDAVEGVDYDVARMRQVWDATNDQDRRLAEENQRGINSTAYQPGPYSKTYEFGVVNFIDWYSARMLENLGAEPAPYLKGVAVNHE | not soluble
MGHHHHHHSHMAVGTSALSKEPWWTLPENFHSPMVFHMEEDQEELIFGLDDTYLRCIELHSHTLIQLERCFTATGQTRVTVVGPPMAKQWLLLMFHCVGSQDSKCHARGLKMLERVRSQPLTNDDLVTSVSLPPYTGD | not soluble
MAHHHHHHMKRAAKGEVVFDEDIRRLCDKGVNNLPGWSLAAAEVKAAVRNSTKHFLDAAAEEARNPTTTSAPEKLEGCYKSVHNARRGHAVELPDGVERTKTGTGMGMHEGRPEQSWSYKKADDAIEKNDGVQQFGAAPPVLMVLTLDKGWPYSWNRIQDLPKDVFVNCEVDRVWQTVKGDVTAWFSPHGGTDFTPKQRVLIGTPGIGKSMAAGSYLLYQLLHCDAKKLQVVVHRFGGGDAYVSDKITRAVTKYSDEDMCISELRRLRGYGRNVYIIYDVAKEGTPPPRHFAPTSGWGMIVVSFPKVTNYDEWEKQLHAARIIMNCPDESDVRAMCIWKEYNGQVEEEADYWKKVKDRMDKVGPILRFIFDN | not soluble
MQMYLADCIFPDIEGQLAAYKSFCELWDSGEMAKLDNFDGFQMLFRVHAPGAGRVTILFKAESDAQIFEAFAPWRAQFGIEMDFTPVIGCQDVVDYHKKLFAKMS | not soluble
MGSDKIHHHHHHMAYRSAPIADDIIWRAAPQPEDASLADAVRETIASTRKHLLDFIRLDETPPPAAMTLAQWTRPATFRSLLAAYSDHIYRHTPGLPRENKPLLSLWAQWYIGLMTPPLMLALLTQARAINVSAEHIHVEFHETGRAACFWLDVHQDNLATERSPEERMETLIVSALQPVIQALEATGDINAKLIWSNTGYLINWYLTEMKPLLGEALLATLRQRCFFEKQLSDGQDNPLWRTVVMRDGLLVRRTCCQRYRLPDVQQCGDCTLK | not soluble
MGSDKIHHHHHHMYLIGSDIGTQGTKSVIVNEKGEVLAEAFREYEVITPKPNWAEQWPDVWVKAVFETVKEVVEKSGVSKKEIAGIAISGLYGGSGIPVDRNMQPLRPCLIWMDRRAVKETEWVKQNVPKEKLFEITGNYVDSYFGFTKIMWIRNNEPEIWEKIYKFITPKDYVIYQMTGEVVIDYSSAGNLGGVFDIRKLTWSKEMCDVLGIPIEFLPERIVKSSDVVGRVTKEASELCGLLEGTPVVAGGIDAPVAQLSAGALEEGEHVAMVGTSTCWGTVHDGSKLAFGLVNYPYVVYDTERIYTFGGSATTGALARWFKEQFGESETIVGERTGISPYQLFDKEVANIPAGSEGIIVLPYFMGERSPIWDPTARGVFFGVTLYHKRAHLYRALMEGGAYALRHNMEEGLKAGLKLNDECWIVGGVSKSSVWVKIFADVTGFKMRQVASLVEAPYGDAFLAGLGTGVIDKPERIKEWVKYRDPVEPDPENKKIYDRYYEIYRELYERTKDLMARL | not soluble
MDSIIELRHLKTLLALEETGSVSLAAKRVFLTQSALSHQIRMLENHYGTPLFERKSTPLRFTPVGERLLRLAHELIPQVAVAEWDLARITEGEAGELRIAVECHTCFDWLMPAMGEFRPMWPQVELDIVSGFQADPVGLLLQHRADLAIVSEAEKQNGISFQPLFAYEMVGICAPDHPLAAKNVWTAEDFIGETLITYPVPDEMLDLPKKILIPKNINPPRRHSELTIAIIQLVASRRGIAALPYWTVMPYLEKGYVVHRQITADGLQSKLYAAIRTEDTDKSYLNNFCQIIRERGFADLPGLSELEPV | not soluble
MRTTYREHLDAFAQDLITMCDTVAAVVEGASTGLLEGSLQSAQHALSLSDELDEVKNRATKRAVQLLSLEAPVARDLRQIVSSIYIIEDFDRMASLAMHIASMARRRHPDLVVPEPIRGYFHEMARLCTEMSDKTRSVLVDPDADVAIVLAADDDAIDDIHEHIMTLLTKKEWPFSTRAAVEVTLLARYYERFADHTVNVAAQIVYLTTGLMPEEYKKKRDDGFEPDEMEARFAQLEEQFANYDWPKPAD | not soluble
MGSDKIHHHHHHWQVTGSKTTQDGVEAARMCGIDSYPLRLEPQLVCDTEDLDALMNVDALVITLPARRTGAGEGFYLQAVQEIVDTALAYHIPRIVFTSSTSVYGNVNGTVKENSPRLPQTASGQVLKELEDWLHNLPGTSVDILRLAGLVGPSRHPGRFFAGKSAPDGQHVVNLVHLQDVVAAIELLLQAPKGGHIYNLCAPRHPARGLFYPQMARELGLPPPVFSDSPDGGQGKIVDGNRICNELGFEYQYPDPLVMPME | not soluble
MSWGTELWDQFDNLEKHTQWGIDILEKYIKFVKERTEIELSYAKQLRNLSKKYQPKKNSKEEEEYKYTSCKAFISNLNEMNDYAGQHEVISENMASQIIVDLARYVQELKQERKSNFHDGRKAQQHIETCWKQLESSKRRFERDCKEADRAQQYFEKMDADINVTKADVEKARQQAQIRHQMAEDSKADYSSILQKFNHEQHEYYHTHIPNIFQKIQEMEERRIVRMGESMKTYAEVDRQVIPIIGKCLDGIVKAAESIDQKNDSQLVIEAYKSGFEPPGDIEFEDYTQPMKRTVSDNSLSNSRGEGKPDLKFGGKSKGKLWPFIKKNKLMSLLTSPHQPPPPPPASASPSAVPNGPQSPKQQKEPLSHRFNEFMTSKPKIHCFRSLKRGLSLKLGATPEDFSNLPPEQRRKKLQQKVDELNKEIQKEMDQRDAITKMKDVYLKNPQMGDPASLDHKLAEVSQNIEKLRVETQKFEAWLAEVEGRLPARSEQARRQSGLYDSQNPPTVNNCAQDRESPDGSYTEEQSQESEMKVLATDFDDEFDDEEPLPAIGTCKALYTFEGQNEGTISVVEGETLYVIEEDKGDGWTRIRRNEDEEGYVPTSYVEVCLDKNAKDS | soluble
MAGNSIGQFFRVTTFGESHGIALGCIIDGVPPGIPITEADIQLDLDRRRPGTSRYTTQRRELDQVRILSGVFEGVTTGTSIGLMIENTDQRSQDYSAIKDVFRPGHADYTYEQKYGVRDYRGGGRSSARETAMRVAAGAIAKKYLAQKFGVQVRGYLAQMGDVSCDLLDWDLVEQNPFFCPDASKLEPLDALMRELKKAGDSIGAKITVVAENVPVGLGEPVFDRLDADLAHALMSINAVKGVEIGDGFAVVTKRGSENRDEITPQGFQSNHAGGILGGISSGQPVVAHIALKPTSSIMVPGQTINRQGEAVEMVTRGRHDPCVGIRAVPIAEAMMAIVLMDHLLRQRAQCGDVASDVPRW | not soluble
MGSDKIHHHHHHMDYPQQHIKPYNEDGKKTEQVERMFDNIAHAYDKLNHTLSLGIDRSWRRKAIAWLRPFRPQHIMDVATGTGDFAILACRELNPDELIGTDISEGMMNVGREKVKKEGLSDKISFAREDCTSLSFADNRFDAITVAFGIRNFEDLDKGLSEMCRVLKPGGHLVILELTTPDRFPMKQLFAIYSKVVIPLLGKLLSKDNSAYHYLPDTIKVFPQGEVMKGVISKTGFGEVHFRRLTFGICTLYTATK | not soluble
MGSDKIHHHHHHMLPQSFSYKVIRHNMITVAHLINNIVQSGPVIVMRDIIRHMDRDKFHPIVICLRHEEKEDPIVKELRAIDVKCIYLNYSLLSLELQTGRIARKVLSVLRNEKAHILHSHGYHPDLIASHLSRNITSLSTLHNISKDDFTFLKGNLLGSYMNFRYLRSLSKIGHYVAISRAVADYYASHVNKAKERIRIIHNGVDLSFFQIPDEDHQKQLRHRLGLPVSGKIFLVVGRLFSRKDPLIIIRAFKFLLESQKLSGDFYLFFLGDGPLSDACQKEIGDKTHNIRLLGFQKNVHEYMMAADYAITASHSEGFGLNYLEATACGKPVVATDLPPFREICGTGFQDNELFFSVGNQKELEDCILKSLGHTFNPQKVSDIRHHFSAETMSVQYQNYYTELSAPLK | not soluble
MSLKIAMIGLGDIAQKAYLPVLAQWPDIELVLCTRNPKVLGTLATRYRVSATCTDYRDVLQYGVDAVMIHAATDVHSTLAAFFLHLGIPTFVDKPLAASAQECENLYELAEKHHQPLYVGFNRRHIPLYNQHLSELAQQECGALRSLRWEKHRHALPGDIRTFVFDDFIHPLDSVNLSRQCNLDDLHLTYHMSEGLLARLDVQWQTGDTLLHASMNRQFGITTEHVTASYDNVAYLFDSFTQGKMWRDNQESRVALKDWTPMLASKGFDAMVQDWLQVAAAGKLPTHIIERNLASHQLAEAICQQITQQVTKGEGGSHHHHHH | soluble
MVHHSTKLPKNGGSEPKLVGAYLVSGSRSRIVDLINMIRELNAPILVFTRYPTFYQDLGENIKVIWITQASEDGIPPTKLHVIQDYAIKFAKENKYAVVIIDCVEYLLLYNEFASVFKFLASLKDYLIMMNSALVLAVDEKALDEKYYTLLLNEFEPLLEHHHHHH | soluble
MDPKRWWEKQEDIVISKDQIPRCDNKEVKMFGGMLLACDDVVTEDQLSWAPGFTDLPKKRGKKKDLNKFDAGILPGTSKQNNPMDPQVRLLLEASWEAMVDAGINPRGLRGSQIGDFDECATPGTSGTQKQNPVTEMGCIMSDTVPSMFSNRISYTFDLQGPSHSADKINFSTKKRMTKLRNRNSIV | not soluble
MVVVCASHIQPAIICRFTWLRFLMEIILIRHGKPTSANNPVLNAVDFTKWVRRYNFSDVSTNSRPDSILDEYKSHYIVSSDLERAIHSASIYTGQSPELTSKLYREMEIPRYKFPLRFKAMTWVYINRAFWMLGLKGSFESYRQAKIRAELASDHLVELAREQDKVILFGHGYLNLHIRRSLIKKGWKLNSKSNGFWGISSLEGLEHHHHHH | not soluble
REKGIVEPSCGVTANAIMKLFLDKDGFSYCFENEQTLSLEQLQERLSCMPECKSFVLRVNDGALGHAYIVDIPKGENSCRPAFLYQSDLGEGVTRKLRFEDWMTHKALTPILLDDICNYFSCMSQNKTDLEQIATLFDIDGNVKMLRKENIQYQKHDNFSFQLFEYDTDNIEKNIEIIKSLCSGAAALEHHHHHH | soluble
MGSDKIHHHHHHMALKDYAIEKEKVKKFLQEFYYENELGKKQFKYGTQLVHLAHREQVALYVDLDDIAEDDPELVDSICENAKRYSRLFGDVVQELLPEYKEKEVVNKDVLDVYIEHRLMMEQRSRDPGAVRNPQNQYPSELMRRFELYFRGPSSSKPRVIREVRADSVGKLLTVRGIVTRVSEVKPRMVVATYTCDQCGAETYQPIQSPTFMPLIMCPSQECQTNRSGGRLYLQTRGSKFVKFQEMKIQEHSDQVPVGNIPRSITVVLEGENTRIAQPGDHVSVTGIFLPVLRTGFQQMAQGLLSETYLEAHWIVKMTKSDDDVSGAGELSSEELKQIAEEDFYEKLAASIAPEIYGHEDVKKALLLLLVGGVDQSPQGMKIRGNIHICLMGDPGVAKSQLLSYIDRLAPRSQYTTGRGSSGVGLTAAVLRDSVSGELTLEGGALVLADQGVCCIDEFDKMAEADRTAIHEVMEQQTISIAKAGILTTLNARCSILAAANPAYGRYNPRRSLEQNVQLPAALLSRFDLLWLIQDRPDRDNDLRLAQHITYVHQHSRQPPAQFEPLDMKLMRRYIAMCHERQPTVPESLADYITAAYVEMRREARASKDATYTSARTLLAILRLSTALARLRMVDIVEKEDVNEAIRLMEMSKDSLLGEKGQTARTQRPADVIFATIRELVSRGRSVHFSEAEQRCISRGFTPAQFQAALDEYEELNVWQVNTSRTRITFV | not soluble
